Where “and” joins values, the source holds several entries; their conditions need not be identical. Equal entries are not always repeated. Ends that are not written are not given here.
Legend:
[1] = Pharmacokinetic study of DGC in C57BL/6J mice (serum Au by ICP-MS); assay type: in vivo; conditions: for AUC(0-t) (AUClast) / AUC(0-∞) (AUCINF_obs) / AµMC(0-t) (AUMClast) / AµMC(0-∞) (AUMCINF_obs) / Cmax / MRT(0-t) (MRTlast) / MRT(0-∞) (MRTINF_obs) / Vz/F (Vz_obs) / elimination half-life t1/2z (HL_Lambda_z) / CLz/F (Cl_obs) / Tmax: 20 mg/kg i.v. single dose, n=3; for AUC(0-t) (AUClast) / AUC(0-∞) (AUCINF_obs) / AµMC(0-t) (AUMClast) / AµMC(0-∞) (AUMCINF_obs) / Cmax / MRT(0-t) (MRTlast) / MRT(0-∞) (MRTINF_obs) / Vz/F (Vz_obs) / elimination half-life t1/2z (HL_Lambda_z) / CLz/F (Cl_obs) / Tmax / Clast / C0 / Cmax_D / Lambda_z: serum Au by ICP-MS; for AUC(0-t) (AUClast) / AUC(0-∞) (AUCINF_obs) / AµMC(0-t) (AUMClast) / AµMC(0-∞) (AUMCINF_obs) / Cmax / MRT(0-t) (MRTlast) / MRT(0-∞) (MRTINF_obs) / Vz/F (Vz_obs) / elimination half-life t1/2z (HL_Lambda_z) / CLz/F (Cl_obs) / Tmax / Clast_pred / AUCINF_D_obs / AUCINF_D_pred / AUCINF_pred / AUCall / AUClast_D / AUMCINF_pred / Cl_pred / MRTINF_pred / Vss_obs / Vss_pred / Vz_pred / C0 / Cmax_D / Lambda_z: WinNonlin; for CLz/F (Cl_obs) / Tmax: 20 mg/kg; for Clast_pred / Clast / AUCINF_D_obs / AUCINF_D_pred / AUCINF_pred / AUCall / AUClast_D / AUMCINF_pred / Cl_pred / MRTINF_pred / Vss_obs / Vss_pred / Vz_pred / C0 / Cmax_D / Lambda_z: 20 mg/kg i.v.; for Clast_pred / Clast: Tlast 48 h
Description: Male and female mice were given a single intravenous dose of 20 mg/ kg (n = 3). The blood of posterior orbital venous plexus was collected at continuous time points (0.083, 0.25, 0.5, 1, 2, 4, 8, 10, 12, 24, and 48 h) and the serum was rapid separation by centrifugation (1200×g at 4 °C, 10 min). Au content in the serum sample was detected by ICP-MS. The pharmacokinetic index was obtained by using winnonlin8.4 […] model.

[2] = Effect of DGC on hematology of mice; assay type: in vivo, C57BL/6J mice; conditions: for Mean hemoglobin content of red blood cells (MCH): in pg (unit assumed)
From the text: In order to clarify the NIR-II signal in AD brains when in vivo imaging is arisen from the DGC probe that bound to CTGF, we selected 3-month-old APP/PS1 mice representing early-stage AD and the age-matched WT mice as control to performed ex vivo multimodal analysis of the brain sections. […] To exclude the influence of vascular retention, we emptied the cerebral vessels by cardiac perfusion and performed ex vivo imaging of the brains. […] For brain sections made from AD mice after tail vein injection of DGC, the red fluorescence observation and LA-ICP-TOF-MS of DGC, as well as a POD-like catalysis test were performed. […] In Fig. 6c, the colocalization of DGC (red fluorescence) and CTGF (green fluorescence) on the ex vivo brain sections confirmed the specificity of DGC targeting CTGF in vivo. To further identify the cellular target of DGC in the brain of APP/PS1 mice, we carried out immunofluorescence staining on the ex vivo brain sections after tail vein injection of DGC where cell-specific fluorescent antibodies for microglia (Iba 1), neurons (NeuN), vascular endothelial cell (CD31) and reactive astrocytes (GFAP) were applied. In Fig. 6d, […] co-localizes with GFAP-positive active astrocytes and CD31-positive microvessels, but not with neurons or microglia. […] The biosafety of DGC in C57BL/6J mice under the NIR-II imaging condition was evaluated by blood tests (blood cells and biochemical analysis) and organ pathological analysis (H&E staining).

[3] = Dynamic light scattering, hydrated particle size; assay type: physicochemical; conditions: dynamic light scattering (Zetasizer Nano), aqueous
From the text: The fluorescence spectrophotometer (Shimadzu RF-5301, Kyoto, Japan) and NIR spectrograph FLS1000 was used to acquire the fluorescence and NIR spectra of the as-synthesized DGC. The mean hydrated particle size and size distribution of DGC were further documented by a phase analysis light-scattering technique (Zetasizer Nano, Malvern). The synthetic DGC was also observed by using a High-Resolution Transmission Electron Microscope (HRTEM, FEI Talos F200X-G2) at the accelerated voltage of 200 kV.

[4] = DGC group, mean of 3 mice, in 10^9/L (unit assumed)
[5] = DGC group, mean of 3 mice, in % (unit assumed)
[6] = DGC group, mean of 3 mice, in fL (unit assumed)
[7] = DGC group, mice 1, in fL (unit assumed)
[8] = DGC group, mice 2, in fL (unit assumed)
[9] = DGC group, mice 3, in fL (unit assumed)

In the case of “DGC: CTGF-targeting peptide-coated gold nanocluster: one Au26 gold nanocluster coated by eight DAG cyclic peptides, NIR-II and red fluorescence (CDAGRKQKC; also: cyclic peptide, ring not given here, eight peptides on one Au26 nanocluster via Cys Au-S bonds)”, the “AUC(0-t) (AUClast)” value ([1]; female C57BL/6J mice) was 650.995 µg·h/mL, the “AUC(0-∞) (AUCINF_obs)” value ([1]; female C57BL/6J mice) was 779.367 µg·h/mL and the “AµMC(0-t) (AUMClast)” value ([1]; female C57BL/6J mice) was 10136.5 h*h*mg/L. For the same substance, the “AµMC(0-∞) (AUMCINF_obs)” value ([1]; female C57BL/6J mice) was 19964.5 h*h*mg/L, the Cmax ([1]; female C57BL/6J mice) was 191.26 µg/mL and the “MRT(0-t) (MRTlast)” value ([1]; female C57BL/6J mice) was 15.5708 h. For the same substance, the “MRT(0-∞) (MRTINF_obs)” value ([1]; female C57BL/6J mice) was 25.6162 h, the “Vz/F (Vz_obs)” value ([1]; female C57BL/6J mice) was 0.7329 L/kg and the “elimination half-life t1/2z (HL_Lambda_z)” value ([1]; female C57BL/6J mice) was 19.7951 h. The “CLz/F (Cl_obs)” value ([1]; female C57BL/6J mice) was 0.5 mL/min/kg and 0.4277 mL/min/kg, the Tmax ([1]; female C57BL/6J mice) was 4.8 min and 4.98 min and the Clast_pred ([1]; female C57BL/6J mice) was 4.584 µg/mL. It also gave a Clast ([1]; female C57BL/6J mice) of 4.495 µg/mL, an AUCINF_D_obs ([1]; female C57BL/6J mice) of 38.9684 kg·mg·h/L/mg and an AUCINF_D_pred ([1]; female C57BL/6J mice) of 39.095 kg·mg·h/L/mg. For the same substance, the AUCINF_pred ([1]; female C57BL/6J mice) was 781.9 µg·h/mL, the AUCall ([1]; female C57BL/6J mice) was 650.995 µg·h/mL and the AUClast_D ([1]; female C57BL/6J mice) was 32.5498 kg·mg·h/L/mg. It also gave an AUMCINF_pred ([1]; female C57BL/6J mice) of 20158.4 h*h*mg/L, a Cl_pred ([1]; female C57BL/6J mice) of 0.4263 mL/min/kg and an MRTINF_pred ([1]; female C57BL/6J mice) of 25.7813 h. It also gave a Vss_obs ([1]; female C57BL/6J mice) of 0.6574 L/kg, a Vss_pred ([1]; female C57BL/6J mice) of 0.6595 L/kg and a Vz_pred ([1]; female C57BL/6J mice) of 0.7305 L/kg. For the same substance, the C0 ([1]; female C57BL/6J mice) was 267.189 µg/mL, the Cmax_D ([1]; female C57BL/6J mice) was 9.563 kg·mg/L/mg and the Lambda_z ([1]; female C57BL/6J mice) was 0.03502 h⁻¹. For the same substance, the “elimination half-life (t1/2z)” value ([1]; in mice, sex not specified) was “about 20 h”, the “AUC(0-t) (AUClast)” value ([1]; male C57BL/6J mice) was 615.219 µg·h/mL and the “AUC(0-∞) (AUCINF_obs)” value ([1]; male C57BL/6J mice) was 735.649 µg·h/mL. For the same substance, the “AµMC(0-t) (AUMClast)” value ([1]; male C57BL/6J mice) was 8803.77 h*h*mg/L, the “AµMC(0-∞) (AUMCINF_obs)” value ([1]; male C57BL/6J mice) was 18299.4 h*h*mg/L and the Cmax ([1]; male C57BL/6J mice) was 172.688 µg/mL. For the same substance, the “MRT(0-t) (MRTlast)” value ([1]; male C57BL/6J mice) was 14.31 h, the “MRT(0-∞) (MRTINF_obs)” value ([1]; male C57BL/6J mice) was 24.8751 h and the “Vz/F (Vz_obs)” value ([1]; male C57BL/6J mice) was 0.8386 L/kg. The “elimination half-life t1/2z (HL_Lambda_z)” value ([1]; male C57BL/6J mice) was 21.3817 h, the “CLz/F (Cl_obs)” value ([1]; male C57BL/6J mice) was 0.5 mL/min/kg and 0.4532 mL/min/kg and the Tmax ([1]; male C57BL/6J mice) was 4.8 min and 4.98 min. The Clast_pred ([1]; male C57BL/6J mice) was 3.998 µg/mL, the Clast ([1]; male C57BL/6J mice) was 3.904 µg/mL and the AUCINF_D_obs ([1]; male C57BL/6J mice) was 36.7825 kg·mg·h/L/mg. The AUCINF_D_pred ([1]; male C57BL/6J mice) was 36.9275 kg·mg·h/L/mg, the AUCINF_pred ([1]; male C57BL/6J mice) was 738.551 µg·h/mL and the AUCall ([1]; male C57BL/6J mice) was 615.219 µg·h/mL. The AUClast_D ([1]; male C57BL/6J mice) was 30.7609 kg·mg·h/L/mg, the AUMCINF_pred ([1]; male C57BL/6J mice) was 18528.2 h*h*mg/L and the Cl_pred ([1]; male C57BL/6J mice) was 0.4513 mL/min/kg. The MRTINF_pred ([1]; male C57BL/6J mice) was 25.0872 h, the Vss_obs ([1]; male C57BL/6J mice) was 0.6763 L/kg and the Vss_pred ([1]; male C57BL/6J mice) was 0.6794 L/kg. The Vz_pred ([1]; male C57BL/6J mice) was 0.8353 L/kg, the C0 ([1]; male C57BL/6J mice) was 204.126 µg/mL and the Cmax_D ([1]; male C57BL/6J mice) was 8.634 kg·mg/L/mg. The Lambda_z ([1]; male C57BL/6J mice) was 0.03242 h⁻¹, the “Basophil granulocyte count (Bas#)” value ([2]; C57BL/6J mice, 20 mg/kg DGC, n = 3, normal range 0.00 - 0.12) was 0.02 ± 0.01 109/L and the “Eosinophil granulocyte count (Eos#)” value ([2]; C57BL/6J mice, 20 mg/kg DGC, n = 3, normal range 0.00 - 0.51) was 0.04 ± 0.02 109/L. For the same substance, the “Percentage of Basophil granulocyte (Bas%)” value ([2]; C57BL/6J mice, 20 mg/kg DGC, n = 3, normal range 0.0 - 1.5) was 0.27 ± 0.06%, the “Percentage of eosinophil granulocyte (Eos%)” value ([2]; C57BL/6J mice, 20 mg/kg DGC, n = 3, normal range 0.0 - 7.5) was 0.47 ± 0.23% and the “Monocytes count (Mon#)” value ([2]; C57BL/6J mice, 20 mg/kg DGC, n = 3, normal range 0.04 - 1.40) was 0.25 ± 0.1 109/L. For the same substance, the “Percentage of monocytes (Mon%)” value ([2]; C57BL/6J mice, 20 mg/kg DGC, n = 3, normal range 0.9 - 18.0) was 3.07 ± 0.84%, the “Percentage of neutrophil (Neu%)” value ([2]; C57BL/6J mice, 20 mg/kg DGC, n = 3, normal range 6.5 - 50.0) was 13.2 ± 1.31% and the “Percentage of lymphocyte (Lym%)” value ([2]; C57BL/6J mice, 20 mg/kg DGC, n = 3, normal range 40.0 - 92.0) was 83 ± 2.08%. For the same substance, the “Mean concentration of red blood cell hemoglobin (MCHC)” value (“Mean concentration” for short) ([2]; DGC group, mean of 3 mice) was 315.67 ± 5.69, the “Width of platelet distribution (PDW)” value ([2]; DGC group, mean of 3 mice) was 15.23 ± 0.25 and the “Basophil granulocyte count (Bas#)” value [2, 4] was 0.02 ± 0.01. The “Eosinophil granulocyte count (Eos#)” value [2, 4] was 0.04 ± 0.02, the “Lymphocyte count (Lym#)” value [2, 4] was 6.65 ± 0.78 and the “Monocytes count (Mon#)” value [2, 4] was 0.25 ± 0.1. The “Neutrophil count (Neu#)” value [2, 4] was 1.07 ± 0.24, the “Platelet count (PLT)” value [2, 4] was 1228.67 ± 179.01 and the “White blood cell count (WBC)” value [2, 4] was 8.03 ± 1.12. For the same substance, the “Red blood cell count (RBC)” value ([2]; DGC group, mean of 3 mice, in 10^12/L (unit assumed)) was 10.16 ± 0.42, the “Coefficient of variation of red blood cell distribution width (RDW-CV)” value [2, 5] was 13.13 ± 1 and the “Hematocrit (HCT)” value [2, 5] was 51.2 ± 1.93. The “Mean corpuscular volume (MCV)” value [2, 6] was 50.4 ± 0.17, the “Mean platelet volume (MPV)” value [2, 6] was 5.53 ± 0.15 and the “Standard deviation of red blood cell distribution width (RDW-SD)” value [2, 6] was 27.8 ± 2.1. The “Hemoglobin (HGB)” value ([2]; DGC group, mean of 3 mice, in g/L (unit assumed)) was 161.67 ± 8.02, the “Mean hemoglobin content of red blood cells (MCH)” value (from here on “Mean hemoglobin content”) ([2]; DGC group, mean of 3 mice) was 15.93 ± 0.25 and the “Mean concentration” value ([2]; DGC group, mice 1) was 311. For the same substance, the “Mean corpuscular volume (MCV)” value [2, 7] was 50.5, the “Mean platelet volume (MPV)” value [2, 7] was 5.7 and the “Mean hemoglobin content” value ([2]; DGC group, mice 1) was 15.7. The “Mean concentration” value ([2]; DGC group, mice 2) was 322, the “Mean corpuscular volume (MCV)” value [2, 8] was 50.2 and the “Mean platelet volume (MPV)” value [2, 8] was 5.4. The “Mean hemoglobin content” value ([2]; DGC group, mice 2) was 16.2, the “Mean concentration” value ([2]; DGC group, mice 3) was 314 and the “Mean corpuscular volume (MCV)” value [2, 9] was 50.5. For the same substance, the “Mean platelet volume (MPV)” value [2, 9] was 5.5, the “Mean hemoglobin content” value ([2]; DGC group, mice 3) was 15.9 and the average hydrated size [3] was ~ 2.85 nm.
